Assay results as given in US20060229438A1, “Monoclonal antibody derived peptide inhibitors for mycobacterial dna gyrase” (priority 2002, published 2006).
≈ marks a conversion by molar mass, not a printed value.

Columns and labels:
[1] = tested on: ciprofloxacin resistant M. smegmatis mc^2155 strain; assay: Ciprofloxacin susceptibility (MIC50) of resistant strain; type: cell-based; conditions: Mycolicibacterium smegmatis
M. smegmatis DNA gyrase = molecular target: T1, M. smegmatis DNA gyrase (Mycolicibacterium smegmatis, UniProt Q59556); assay: DNA supercoiling assay, M. smegmatis DNA gyrase; type: biochemical
T1 construct: made in house

[2] = tested on: DNA gyrase from ciprofloxacin resistant M. smegmatis mc^2155 strain; type: biochemical
[3] = molecular target: T2, M. smegmatis DNA gyrase A subunit (GyrA) (Mycobacterium smegmatis, UniProt P48354 1-842); assay: SPR (BIAcore 2000), M. smegmatis GyrA immobilized on CM5 chip
T2 construct: also called M. smegmatis GyrA
T2 sequence (P48354 whole entry): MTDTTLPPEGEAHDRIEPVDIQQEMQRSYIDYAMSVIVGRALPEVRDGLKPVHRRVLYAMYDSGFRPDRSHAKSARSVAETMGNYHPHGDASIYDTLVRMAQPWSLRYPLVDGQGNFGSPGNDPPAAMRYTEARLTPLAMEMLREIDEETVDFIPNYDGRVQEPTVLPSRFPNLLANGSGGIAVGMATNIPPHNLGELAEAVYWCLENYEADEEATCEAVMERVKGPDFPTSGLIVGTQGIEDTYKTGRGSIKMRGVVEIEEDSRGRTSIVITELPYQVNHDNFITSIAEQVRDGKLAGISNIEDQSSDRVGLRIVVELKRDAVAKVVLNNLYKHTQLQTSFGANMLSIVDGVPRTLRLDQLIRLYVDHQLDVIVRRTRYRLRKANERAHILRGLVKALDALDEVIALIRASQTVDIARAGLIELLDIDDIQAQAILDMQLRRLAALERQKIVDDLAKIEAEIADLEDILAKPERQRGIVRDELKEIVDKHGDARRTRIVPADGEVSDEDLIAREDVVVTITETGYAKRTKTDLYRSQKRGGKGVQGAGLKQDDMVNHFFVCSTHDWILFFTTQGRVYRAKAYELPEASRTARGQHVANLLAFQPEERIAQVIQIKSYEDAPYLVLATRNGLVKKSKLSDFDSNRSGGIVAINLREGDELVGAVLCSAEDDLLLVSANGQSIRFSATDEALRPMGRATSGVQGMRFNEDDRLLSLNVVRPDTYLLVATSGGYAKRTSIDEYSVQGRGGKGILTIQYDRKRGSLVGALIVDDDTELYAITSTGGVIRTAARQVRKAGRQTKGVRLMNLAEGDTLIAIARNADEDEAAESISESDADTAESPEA
Protocol: Binding parameters were determined by Surface Plasmon Resonance (SPR) spectroscopy using a BIAcore 2000 system, Uppsala, Sweden. The over-expressed and purified M. smegmatis GyrA was immobilized on the CM5 sensor chip at a concentration of 400 resonance units (RU) as per manufacturer's instructions. All measurements were carried out in a continuous flow of HBS buffer (10 mM HEPES, 150 mM NaCl, 5 mM EDTA and 0.05 % Surfactant P-20, pH 7.4) at 10 μl/min. […] The kinetic data were analyzed using the BIA evaluation software (Version 3.0). The surface was regenerated by a pulse of 5 μL of 100 mM NaOH for further experimentation as required.

T1 sequence (Q59556 whole entry): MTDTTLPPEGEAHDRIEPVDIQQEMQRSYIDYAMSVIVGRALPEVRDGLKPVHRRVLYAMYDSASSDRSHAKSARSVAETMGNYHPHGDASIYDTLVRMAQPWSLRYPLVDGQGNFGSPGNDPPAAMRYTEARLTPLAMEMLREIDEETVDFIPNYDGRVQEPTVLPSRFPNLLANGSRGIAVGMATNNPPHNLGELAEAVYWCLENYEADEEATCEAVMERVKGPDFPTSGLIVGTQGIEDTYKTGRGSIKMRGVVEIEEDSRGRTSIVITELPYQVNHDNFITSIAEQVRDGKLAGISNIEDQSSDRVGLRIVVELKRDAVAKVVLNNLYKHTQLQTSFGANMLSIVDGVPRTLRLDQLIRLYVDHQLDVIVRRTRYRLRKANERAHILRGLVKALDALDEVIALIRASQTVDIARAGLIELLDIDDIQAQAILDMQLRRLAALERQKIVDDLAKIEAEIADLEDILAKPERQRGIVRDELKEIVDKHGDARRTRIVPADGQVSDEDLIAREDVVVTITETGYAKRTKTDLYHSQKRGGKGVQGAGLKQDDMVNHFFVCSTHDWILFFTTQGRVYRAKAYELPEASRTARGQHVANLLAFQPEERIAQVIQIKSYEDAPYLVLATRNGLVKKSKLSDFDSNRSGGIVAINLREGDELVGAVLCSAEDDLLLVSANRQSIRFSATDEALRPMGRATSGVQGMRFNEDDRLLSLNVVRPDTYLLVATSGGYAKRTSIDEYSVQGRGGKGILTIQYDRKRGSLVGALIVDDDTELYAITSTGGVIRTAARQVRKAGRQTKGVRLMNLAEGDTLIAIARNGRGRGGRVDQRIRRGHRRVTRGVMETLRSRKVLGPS
T1 sequence (P0C559 2-675, further chain): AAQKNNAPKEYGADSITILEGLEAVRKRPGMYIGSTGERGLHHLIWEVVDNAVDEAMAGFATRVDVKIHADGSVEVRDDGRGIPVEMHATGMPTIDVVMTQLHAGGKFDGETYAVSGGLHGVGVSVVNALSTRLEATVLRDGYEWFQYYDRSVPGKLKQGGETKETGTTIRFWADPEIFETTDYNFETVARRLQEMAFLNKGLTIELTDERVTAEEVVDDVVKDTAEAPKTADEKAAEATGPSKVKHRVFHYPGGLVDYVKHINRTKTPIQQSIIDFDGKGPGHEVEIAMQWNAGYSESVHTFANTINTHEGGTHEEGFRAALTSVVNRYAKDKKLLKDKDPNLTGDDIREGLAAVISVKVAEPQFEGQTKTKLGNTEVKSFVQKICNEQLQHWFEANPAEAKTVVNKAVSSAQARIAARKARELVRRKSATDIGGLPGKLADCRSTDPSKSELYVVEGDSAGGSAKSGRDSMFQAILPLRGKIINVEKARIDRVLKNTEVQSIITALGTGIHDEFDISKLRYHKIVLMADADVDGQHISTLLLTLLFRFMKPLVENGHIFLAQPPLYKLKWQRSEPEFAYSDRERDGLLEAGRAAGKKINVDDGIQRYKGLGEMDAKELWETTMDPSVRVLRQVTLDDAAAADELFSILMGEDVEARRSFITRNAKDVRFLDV

Molecule `O=C(O)c1cn(C2CC2)c2cc(N3CCNCC3)c(F)cc2c1=O` [ciprofloxacin, reference compound] has an MIC50 [1] of 64 µg/mL (≈ 193 µM) and an IC50 (M. smegmatis DNA gyrase) of ~15.1 µM.

For KASGYSFTVYYIYWVK [CDR:H1], the “peptide concentration for complete inhibition of enzyme activity” value (M. smegmatis DNA gyrase; supercoiling activity) was 5 to 10 µM and the “concentration at which DNA supercoiling activity was inhibited” value [2] was 10 µM.

B1: scFv:GyrA, engineered single chain antibody of MsGyrA:C3 (scFv)
scFv: AQVKLQQSGAELVRPGASVKLSCKASGYSFTVYYIYWVKQRPGQALEWIGEINPSNGGTNFNEKFKTKATLTVDKSTSTVYMQLSSLTSEDSAVYYCTRWGLRRGFAYWGQGTTVTVSSSGGGSGGGGSGGGGSDIELTQSPKSMSMSVGERVTLSCKASENVGTHVSWYQQRPEESPKLLIYGASNRYTGVPDRFTGSGSATDFTLTISNVQAEDLADYHCGQTYSYPFTFGLGTKLEIKRAAAGAPVPYPDPLEPRAA
notes: also called ScFV:GyraA; soluble scFv
B1 showed a Kd [3] of 0.000217 µM.

B2: scFv:GyrA: engineered single chain antibody fragment of MsGyrA:C3, monovalent 30 kDa polypeptide, Seq. ID #2, encoded by pVNUHMscFv (protein)
scFv: B1 scFv
B2 was tested, and the “concentration at which the supercoiling reaction was inhibited” value (M. smegmatis DNA gyrase) was 10 to 20 nM, the “inhibition of DNA gyrase supercoiling activity” value (M. smegmatis DNA gyrase; enzyme preincubated with antibody, relaxed pUC18 DNA) was “inhibited” and the “concentration at which DNA supercoiling activity was inhibited” value [2] was 0.05 µM.
